Experiments:
Acenetobactor (20) = test: In vitro antibacterial activity (MIC), clinical isolates; format: cell-based; settings: 20 Acenetobactor clinical isolates
In short: (§1)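 Clinical isolates collected in Sichuan and Beijing in 2002, identified with the API system, were exposed to test compound to determine MIC50, MIC90 and MIC range. S. aureus ATCC25923, 29213 and BAA-42 served as control strains.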

Enterococcus (20) = test: as above; format: cell-based; settings: 20 Enterococcus clinical isolates
In short: as §1

[1] = test system: Staphylococcus aureus MRSA strain (80); test: as above; format: cell-based; settings: 80 MRSA clinical isolates
In short: as §1

[2] = test system: Staphylococcus aureus MSSA strain (88); test: as above; format: cell-based; settings: 88 MSSA clinical isolates
In short: as §1

[3] = test system: Staphylococcus epidermidis MRSE strain (25); test: as above; format: cell-based; settings: 25 MRSE clinical isolates
In short: as §1

[4] = test system: Staphylococcus epidermidis MSSE strain (21); test: as above; format: cell-based; settings: 21 MSSE clinical isolates
In short: as §1

[5] = test system: Enterococcus faecalis ATCC 700802; test: microbe, parasite or virus in culture; format: cell-based; settings: Enterococcus faecalis, ATCC700802
[6] = test system: Enterococcus faecalis ATCC 700802; test: In vivo protection of infected mice; design: species or system Kungming mice; settings: mice, i.p. infection 8.0 × 10^6 cfu/ml
In short: (§2)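 Kunming mice (18–22 g, both sexes) were infected intraperitoneally with a lethal dose of staphylococci, enterococci or E. coli; agents were diluted in sterile water to 10, 5 and 2.5 mg/L. Deaths were counted every 24 h over 7–14 days.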

[7] = test system: Staphylococcus aureus MRSA 02-18; test: In vivo protection of infected mice; design: species or system Kungming mice; settings: mice, i.p. infection 1.7 × 10^5 cfu/ml
In short: as §2

[8] = test system: Staphylococcus aureus MRSA BAA-42; test: In vivo protection of infected mice; design: species or system Kungming mice; settings: mice, i.p. infection 5.5 × 10^5 cfu/ml
In short: as §2

[9] = test system: Staphylococcus aureus MRSA BAA-42; test: microbe, parasite or virus in culture; format: cell-based; settings: Staphylococcus aureus MRSA BAA-42
[10] = test system: Staphylococcus aureus MRSA 02-18; test: microbe, parasite or virus in culture; format: cell-based; settings: Staphylococcus aureus MRSA 02-18
[11] = test system: Staphylococcus aureus ATCC 29213; test: MIC against challenge strain (Table 3); format: cell-based
Escherichia coli 02-1-65 [12] = test: In vivo protection of infected mice; design: species or system Kungming mice; settings: i.p. infection 3.3 × 10^5 cfu/ml
In short: as §2

[13] = test system: Staphylococcus aureus ATCC 29213; test: In vivo protection of infected mice; design: species or system Kungming mice; settings: i.p. infection 3.6 × 10^5 cfu/ml
In short: as §2

Escherichia coli 02-1-65 [14] = test: MIC against challenge strain (Table 3); format: cell-based
MRSA strain ATCC BAA-42 = test: Electron micrographs of bactericidal effects; format: cell-based, S. aureus; settings: Ph-SA 50 μg/ml 0.5 hrs; wild type colicin Ia 50 μg/ml 2 hrs; AgrDI 10 μg/ml 2 hrs
Text: Electron Micrographs of Bactericidal Effects of Ph-SA1 Against ATCC BAA-42 MRSA Strain Cells (1% Phosphotungstic Acid. 25,000×)

[15] = test system: S. epidermidis BQIOC 26069; format: cell-based; settings: all agents at 2 ug/ml
Method: All agents were at 2 ug/ml.

ATCC 700802 VRE cells = test: Electron micrographs of bactericidal effects of Ph-EF; format: cell-based, Enterococcus; settings: Ph-EF 10 ug/ml 0.5 and 2 hr; Ph-SA 10 ug/ml 2 hr; vancomycin 20 ug/ml 2 hr
Method: Electron Microraphs of Bactericidal Effects of Ph-EF Against ATCC 700802 VRE Cells (1% Phosphotungstic Acid, 15.000×).
Bactericidal effects of ph-EF were tested and monitored by electron microscopy. FIG. 16 depicts electron micrographs of (a) untreated cells; (b) and (c) cells treated with Ph-EF (10 ug/ml) for 0.5 hr; (d) untreated cells for 2 hr; (e) cells treated by Ph-SA (10 ug/ml) for 2 hr; (f) cells treated with vancomycin (20 ug/ml) for 2 hr; (g) and (h) cells treated with Ph-EF (10 ug/ml) for 2 hrs.

[16] = test system: HL-7702 human liver cells; test: Toxicity assessment in mammalian cells; format: cell-based; settings: about 200 micrograms per ml; 48 hours incubation
Method: (§3) To assess potential toxicity to mammalian cells, HL-7702 human liver cells and SMMC-7721 human hepatocellular carcinoma cells (Institute of Biochemistry & Cell Biology, Shanghai, Chinese Academy of Science) were grown in 1640 medium and treated with various fusion peptides. The concentration of antivirus and antibacterial peptides used for treating the cells was about 200 micrograms per ml. Equal amounts of stock solution (20 mM PBS, pH 7.4) was added to the control cells.

[17] = test system: SMMC-7721 human hepatocellular carcinoma cells; test: Toxicity assessment in mammalian cells; format: cell-based; settings: about 200 micrograms per ml; 48 hours incubation
Method: as §3

[18] = test system: Aspergillus niger SWA 1011 strain; test: In vitro cell growth inhibition assay; settings: Ph-CA 5 μg/ml; Ph-SA 5 μg/ml; amphotericin B 200 ng/ml; Fluconazole 3 μg/ml
[19] = test system: Candida albicans ATCC 10231; test: In vitro cell growth inhibition assay (OD595, filaments); settings: Ph-CA 5 μg/ml; Ph-SA 5 μg/ml; ampicillin 50 μg/ml; amphotericin B 200 ng/ml; fluconazole 3 μg/ml
[20] = test system: S. aureus strain ATCC BAA-42 MRSA; settings: all agents 5 μg/ml
[21] = 1st Time, i.v. treatment after one hour
[22] = 2nd Time (value in parentheses), i.v. treatment

B1: Ph-SA1: Colicin Ia linked to the AgrDI pheromone of S. aureus (protein)
chain: SDPVRITNPGAESLGYDSDGHEIMAVDIYVNPPRVDVFHGTPPAWSSFGNKTIWGGNEWVDDSPTRSDIEKRDKEITAYKNTLSAQQKENENKRTEAGKRLSAAIAAREKDENTLKTLRAGNADAADITRQEFRLLQAELREYGFRTEIAGYDALRLHTESRMLFADADSLRISPREARSLIEQAEKRQKDAQNADKKAADMLAEYERRKGILDTRLSELEKNGGAALAVLDAQQARLLGQQTRNDRAISEARNKLSSVTESLNTARNALTRAEQQLTQQKNTPDGKTIVSPEKFPGRSSTNHSIVVSGDPRFAGTIKITTSAVIDNRANLNYLLSHSGLDYKRNILNDRNPVVTEDVEGDKKIYNAEVAEWDKLRQRLLDARNKITSAESAVNSARNNLSARTNEQKHANDALNALLKEKENIRNQLSGINQKIAEEKRKQDELKATKDAINFTTEFLKSVSEKYGAKAEQLAREMAGQAKGKKIRNVEEALKTYEKYRADINKKINAKDRAAIAAALESVKLSDISSNLNRFSRGLGYAGKFTSLADWITEFGKAVRTENWRPLFVKTETIIAGNAATALVALVFSILTGSALGIIGYGLLMAVTGALIDESLVEKANKFWGIYSTCDFIM
modifications: Colicin attached to Pheromone peptide encoding Staphylococcus aureus AgrDI
For B1, the MIC50 (Acenetobactor (20)) was 32 µg/mL, the MIC90 (Acenetobactor (20)) was >64 µg/mL and the MIC50 (Enterococcus (20)) was >64 µg/mL. The MIC90 (Enterococcus (20)) was >64 µg/mL, the MIC50 [1] was 16> mg/l and the MIC90 [1] was 16 µg/mL. The “MIC Scope” value [1] was <0.0005˜64 mg/l, the MIC50 [2] was 0.5 µg/mL and the MIC90 [2] was 16 µg/mL. The MIC50 [3] was >64 µg/mL, the MIC90 [3] was >64 µg/mL and the MIC50 [4] was 0.25 µg/mL. The MIC90 [4] was 16 µg/mL, the “MIC Scope” value [4] was 0.125˜32 mg/l and the MIC [5] was 4 µg/mL. The ED50 [6, 21] was 4.23 mg/kg, the ED50 [6, 22] was “(3.70) mg/kg” and the ED50 [7, 21] was 3.84 mg/kg. For the same molecule, the ED50 [7, 22] was “(4.24) mg/kg”, the ED50 [8, 21] was 4.32 mg/kg and the ED50 [8, 22] was “(4.23) mg/kg”. The MIC [9] was 0.5 µg/mL, the MIC [10] was 0.5 µg/mL and the MIC [11] was 0.25 µg/mL. The ED50 (Escherichia coli 02-1-65 [12]; [21]) was 3.14 mg/kg, the ED50 (Escherichia coli 02-1-65 [12]; [22]) was “(3.12) mg/kg” and the ED50 [13, 21] was 10.35 mg/kg. The ED50 [13, 22] was “(8.87) mg/kg”, the MIC (Escherichia coli 02-1-65 [14]) was 1 µg/mL and the “bactericidal effect / effect on cell growth (electron micrographs)” value (MRSA strain ATCC BAA-42) was “killed BAA-42 MRSA cells”. The “inhibition of cell growth” value [15] was “only partially inhibited”, the “morphological alteration in VRE cells (electron micrographs)” value (ATCC 700802 VRE cells) was “no morphological alteration” and the “cell morphology and cell growth (toxicity)” value [16] was “not toxic to the liver cells”. The “cell morphology and cell growth (toxicity)” value [17] was “not toxic to the liver cells”, the “effect on growth of Aspergillus niger” value [18] was “no effect on the growth” and the “effect on growth of Candida albicans” value [19] was “no effect on the growth”. For the same molecule, the inhibition of growth [20] was “best inhibitory effects”.

Reference: patent US20050153872A1, “Methods and compositions for the treatment of infection” (priority 2004, published 2005)
